Source: US20030091568A1, “Inhibitors for the formation of soluble human CD23” (priority 2000, published 2003)

T1: ADAM9 (Homo sapiens, UniProt Q13443)
T1 construct: endogenous in cells
T1 sequence (Q13443 29-819): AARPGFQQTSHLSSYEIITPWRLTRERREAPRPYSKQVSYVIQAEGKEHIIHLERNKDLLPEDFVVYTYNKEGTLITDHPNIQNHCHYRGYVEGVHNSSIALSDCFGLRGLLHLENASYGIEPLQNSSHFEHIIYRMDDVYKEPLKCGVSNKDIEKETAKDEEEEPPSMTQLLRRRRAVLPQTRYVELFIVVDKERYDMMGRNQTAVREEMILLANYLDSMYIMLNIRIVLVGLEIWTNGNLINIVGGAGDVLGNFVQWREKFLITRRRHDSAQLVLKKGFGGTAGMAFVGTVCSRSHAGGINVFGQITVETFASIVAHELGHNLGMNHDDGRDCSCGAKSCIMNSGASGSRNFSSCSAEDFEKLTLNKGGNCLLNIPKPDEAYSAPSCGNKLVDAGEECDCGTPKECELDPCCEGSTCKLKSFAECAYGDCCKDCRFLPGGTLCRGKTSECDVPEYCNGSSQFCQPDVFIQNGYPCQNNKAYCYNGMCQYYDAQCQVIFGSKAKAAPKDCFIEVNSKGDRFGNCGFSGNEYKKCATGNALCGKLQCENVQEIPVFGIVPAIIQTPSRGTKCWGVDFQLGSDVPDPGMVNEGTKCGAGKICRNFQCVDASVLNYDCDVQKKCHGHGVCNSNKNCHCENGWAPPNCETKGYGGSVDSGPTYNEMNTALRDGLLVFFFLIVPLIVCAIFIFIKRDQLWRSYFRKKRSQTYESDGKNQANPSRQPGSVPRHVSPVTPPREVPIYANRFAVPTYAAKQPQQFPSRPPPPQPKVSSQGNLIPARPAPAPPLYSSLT


Columns and labels:
ADAM9 = biological target: T1, ADAM9; experiment: Shedding of CD23 from human B cell line P493-6 (c-myc "On", endogenous ADAM9); assay type: cell-based; settings: TIMP concentrations known to inhibit MMPs, MT-MMPs, ADAM10 and ADAM17, FIG. 6a
Excerpt: TIMP-1, -2 and -3 are known to inhibit all known secreted matrix metalloproteinases (MMPs), membrane-type matrix metalloproteinases (MT-MMPs), as well as ADAM10 (inhibited by TIMP-1 and TIMP-3) and ADAM17 (TACE, inhibited by TIMP-3 only). In contrast, it has been shown that membrane bound ADAM9 is not inhibited by either TIMP-1, -2 or -3 (see Example 3, FIG. 3). Using the human B cell line P493-6 with a tetracycline regulatable c-myc gene allowed the upregulation of endogeneous ADAM9 via upregulation of c-myc. […] The decrease in cell surface bound CD23 correlated with the increase in the s-CD23 concentration in the culture medium assayed by ELISA (CD23 ELISA kit, Becton Dickinson, and CD23 ELISA kit, the Binding Site). […]
To inhibit matrix metalloproteinase activity, aliquots of the cells studied (transfected CHO AA8, […]) were washed three-times in serum free medium and further cultured either in the presence (1 μM TC) or absence of TC for 24-48 h, either in the presence of 2 μM batimastat (BB-94, British Biotechnology) or 20 nM-1 μM of either TIMP-1, -2, or TIMP-3. […] Surface CD23 in the presence of either of the inhibitors was quantitated by FACS analyses using a FITC-labelled monoclonal antibody against human CD23 and compared to cells cultured in the absence of the respective inhibitor. […]

ADAM17 (TACE) = ADAM17 (TACE) (Homo sapiens, UniProt P78536); settings: stated as known; cited from earlier work
ADAM17 (TACE), sequence (P78536 215-824, species assumed): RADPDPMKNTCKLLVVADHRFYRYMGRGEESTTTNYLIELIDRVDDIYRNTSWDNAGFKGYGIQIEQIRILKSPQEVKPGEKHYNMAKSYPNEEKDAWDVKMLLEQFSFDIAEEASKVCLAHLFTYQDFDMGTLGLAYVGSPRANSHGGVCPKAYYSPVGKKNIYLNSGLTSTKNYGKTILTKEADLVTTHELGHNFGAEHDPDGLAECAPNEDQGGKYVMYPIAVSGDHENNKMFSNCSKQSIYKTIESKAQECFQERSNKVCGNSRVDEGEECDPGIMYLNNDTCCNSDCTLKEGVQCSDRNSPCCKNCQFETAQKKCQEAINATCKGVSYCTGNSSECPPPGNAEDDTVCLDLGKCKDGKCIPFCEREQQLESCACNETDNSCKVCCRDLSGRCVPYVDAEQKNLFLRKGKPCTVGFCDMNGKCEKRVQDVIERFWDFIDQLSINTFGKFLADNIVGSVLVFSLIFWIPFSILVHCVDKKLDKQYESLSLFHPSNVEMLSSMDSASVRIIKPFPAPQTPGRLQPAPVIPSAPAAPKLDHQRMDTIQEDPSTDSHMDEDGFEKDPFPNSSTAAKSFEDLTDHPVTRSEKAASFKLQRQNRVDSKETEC

Row | inhibition of CD23 shedding (s-CD23 in culture medium, ELISA) (ADAM9) | Molecule | inhibition of ADAM17 (TACE) (ADAM17 (TACE))
1 | could not be inhibited | TIMP-1: tissue inhibitor of metalloproteinases 1 | –
2 | could not be inhibited | TIMP-3: tissue inhibitor of metalloproteinases 3 (protein, UniProt P35625 24-211, looked up) Metalloproteinase inhibitor 3: CTCSPSHPQDAFCNSDIVIRAKVVGKKLVKEGPFGTLVYTIKQMKMYRGFTKMPHVQYIHTEASESLCGLKLEVNKYQYLLTGRVYDGKMYTGLCNFVERWDQLTLSQRKGLNYRYHLGCNCKIKSCYYLPCFVTSKNECLWTDMLSNFGYPGYQSKHYACIRQKGGYCSWYRGWAPPDKSIINATDP | inhibited
